Experimental data taken from PMC6170606, “Biological and Biochemical Roles of Two Distinct Cyclic Dimeric Adenosine 3′,5′-Monophosphate- Associated Phosphodiesterases in Streptococcus mutans” (Frontiers in Microbiology, 2018).

Assays:
[1] = tested on: [H][C@@]1(O)[C@]2([H])OP(=O)(O)OC[C@@]3([H])O[C@@]([H])(n4cnc5c(N)ncnc54)[C@]([H])(O)[C@]3([H])OP(=O)(O)OC[C@@]2([H])O[C@@]1([H])n1cnc2c(N)ncnc21; assay: purified protein; details: 50 mM potassium phosphate pH 5.0, 1 mM MnCl2, 0-0.3 mM substrate
Text: initial rate, LC quantification of end product pApA (A254) on rGdpP109-657-ProS2 (truncated recombinant GdpP, SMU_2140c)

[2] = tested on: Nc1ncnc2c1ncn2[C@@H]1O[C@H](COP(=O)(O)O[C@H]2[C@@H](O)[C@H](n3cnc4c(N)ncnc43)O[C@@H]2COP(=O)(O)O)[C@@H](O)[C@H]1O; assay: initial rate, LC quantification of end product AMP (A254); format: biochemical, Streptococcus mutans; details: 50 mM potassium phosphate pH 7.0, 1 mM MnCl2, 0-0.3 mM substrate
Text: initial rate, LC quantification of end product AMP (A254) on rDhhP-ProS2 (recombinant DhhP, SMU_1297)

“rGdpP109-657-ProS2 (truncated recombinant GdpP, SMU_2140c) (Streptococcus mutans UA159)” gave a Km [1] of 89.7 ± 7.29 µM, a Vmax [1] of 4.58 µmol/min/mg and a kcat [1] of 4.02 ± 0.2 s⁻¹.
“rDhhP-ProS2 (recombinant DhhP, SMU_1297) (Streptococcus mutans UA159)” was tested, and the Km [2] was 199 ± 65.4 µM, the Vmax [2] was 32.1 µmol/min/mg and the kcat [2] was 36.5 ± 8.08 s⁻¹.
